Measured values as given in article PMC6405639.

Biological target: 5(6)-TAMRA-Ahx(5-24)NPY (porcine)
Assay: fluorescence polarisation; homogenous binding assay; 5 nM 5(6)-TAMRA-Ahx(5-24)NPY with increasing concentrations of affinity purified Y2R_cysteine_deficient in Brij-58 micelles in binding buffer, 60 min, room temperature; fall of fluorescence in the S-plane; the paper says that the EC50 constitutes the Kd

EC50: 49 nM
B1: Y2R_cysteine_deficient with C-terminal deca-histidine-tag (cell-free expressed) (receptor)
chain: MGPIGAEADENQTVEEMKVEQYGPQTTPRGELVPDPEPELIDSTKLIEVQVVLILAYASIILLGVIGNSLVIHVVIKFKSMRTVTNFFIANLAVADLLVNTLSLPFTLTYTLMGEWKMGPVLCHLVPYAQGLAVQVSTITLTVIALDRHRSIVYHLESKISKRISFLIIGLAWGISALLASPLAIFREYSLIEIIPDFEIVACTEKWPGEEKSIYGTVYSLSSLLILYVLPLGIISFSYTRIWSKLKNHVSPGAANDHYHQRRQKTTKMLVAVVVVFAVSWLPLHAFQLAVDIDSQVLDLKEYKLIFTVFHIIAMASTFANPLLYGWMNSNYRKAFLSAFRAEQRLDAIHSEVSVTFKAKKNLEVRKNSGPNDSFTEATNV
